Tests used:
PD-L1-Fc (R&D Systems) = target: T1, PD-L1-Fc (R&D Systems) (UniProt Q9NZQ7 19-239); assay: plate ELISA/DELFIA (Example 5d): biotinylated antibody on plate-bound PD-L1-Fc, streptavidin-Eu, TRF at 615 nm
T1 construct: not shown: Fc part of the bought fusion protein, not described
Experimental: Excess protein was removed by washing with PBS-Tween (0.1% v/v) and the wells were blocked with 250 μL/well Pierce Protein Free Blocking Buffer (Thermo, 37572) for 1 hour, after which plates were washed as described previously. […] 100 μL each antibody dilution was added to the plates in duplicate and incubated for 1 hour at room temperature, before washing as stated above. Antibody binding was detected using streptavidin labelled Europium (Perkin Elmer) diluted 1/1000 in DELFIA Assay buffer (Perkin Elmer). Plates were washed with TBS (Tris buffered saline)-Tween (0.1% v/v) and 50 μL/well of DELFIA Enhancement solution (Perkin Elmer) was added to the plate. Time-resolved fluorescence was measured at 615 nm on an Envision plate reader (PerkinElmer).

[1] = target: T2, hPD-L1-his (in-house generated recombinant human PD-L1, his-tagged) (human, UniProt Q9NZQ7 19-238, limits assumed, biotinylated in the ELISA and AlphaScreen assays (site not stated)); assay: SPR (ProteOn), anti-human Fc capture, 25 C
T2 construct: also called biotinylated hPD-L1-his; biotinylated His-PD-L1
Experimental: Label-free surface plasmon resonance (SPR) analysis was carried out on the ProteOn XPR36 (BioRad) array SPR machine. […] The data was analysed using the 1:1 model inherent to the ProteOn XPR36 analysis software.
SPR analysis was performed as per Example 4 with the following amendments: analysis was performed at 37° C. as well as 25° C. to increase the stringency of the assay.

T1 sequence (Q9NZQ7 19-239 limits assumed): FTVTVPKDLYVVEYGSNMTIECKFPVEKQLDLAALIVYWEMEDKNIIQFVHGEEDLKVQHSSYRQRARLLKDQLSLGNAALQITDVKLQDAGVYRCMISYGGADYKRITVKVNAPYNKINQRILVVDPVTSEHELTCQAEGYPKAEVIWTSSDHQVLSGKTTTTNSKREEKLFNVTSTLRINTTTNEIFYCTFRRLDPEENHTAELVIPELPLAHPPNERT
T2 sequence (Q9NZQ7 19-238 limits assumed): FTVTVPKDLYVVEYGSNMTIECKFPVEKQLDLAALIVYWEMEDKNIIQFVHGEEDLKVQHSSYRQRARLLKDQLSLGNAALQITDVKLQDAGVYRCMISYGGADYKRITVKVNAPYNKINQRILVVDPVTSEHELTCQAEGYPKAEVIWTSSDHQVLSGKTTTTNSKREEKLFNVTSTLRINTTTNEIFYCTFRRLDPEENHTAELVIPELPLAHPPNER

EC50 (read off the curve) (PD-L1-Fc (R&D Systems)) [nM] | koff [1] [s⁻¹] | Binder
~0.4 |  | 1D05 (antibody, V domains shown, kappa light chain; also called clone 1D05; anti-PD-L1 antibody 1D05) VH: EVQLVESGGGLVQPGRSLRLSCAASGFTFDDYAMHWVRQVPGKGLEWVSGISWIRTGIGYADSVKGRFTIFRDNAKNSLYLQMNSLRAEDTALYYCAKDMKGSGTYGGWFDTWGQGTLVTVSS VL: not shown
~0.4 |  | 84G09 (antibody, human IgG1, V domains shown, kappa light chain; also called clone 84G09) VH: EVQLVESGGGLVQPGRSLRLSCAASGFTFDDYAMHWVRQTPGKGLEWVSGISWKSNIIGYADSVKGRFTISRDNAKNSLYLQMNSLRAEDTALYYCARDITGSGSYGWFDPWGQGTLVTVSS VL: DIQMTQSPSSLSASVGDRVTITCRASQSISSYLNWYQQKPGKAPKPLIYVASSLQSGVPSSFSGSGSGTDFTLTISSLQPEDFATYYCQQSYSNPITFGQGTRLEIK
 | 6.23e-05 | 413G05 (antibody, human IgG1, V domains shown) VH: QVQLVESGGGLVKPGGSLRLSCAASGFTFSDYYMSWIRQVPGKGLEWVSYISTSGSTIYYADSVKGRFTISRDNAKNSLYLQMNSLRAEDAAVYHCARGITGTNFYHYGLGVWGQGTTVTVSS VL: DIQMTQSPSSVSASVGDRVTITCRASQGINSWLAWYQQKPGKAPKLLIYAASTLQSGVPSRFSGSGSGADFTLTISSLQPEDFATYYCQQVNSFPLTFGGGTKVEIK

Reference: patent US20240360218A1 (KYMAB, published 2024)
